Source: patent publication US20230329283A1 (priority 2021, published 2023)
Read-outs that look alike come from different tables or passages of the source.

System: rabbit red blood cells
Conditions: 37° C., 1 h, FIG. 6

## TrSub (EFGAGKAQCAAAWLQCASGGTLGCGGGAVACQNYRQFQCRAA; the amino acid sequence of the recombinant antimicrobial peptide TrSub)
2MIC concentration
  hemolytic activity (hemolysis rate): below 10%
MIC concentration
  hemolytic activity (hemolysis rate): below 10%
